This passage reports remaining activity results from PMC8307404, “Crystal Structure-Guided Design of Bisubstrate Inhibitors and Photoluminescent Probes for Protein Kinases of the PIM Family” (Molecules, 2021).

What all share (assay): Kinase profiling (radiometric filter-binding)
Common to all, as to type: biochemical

For one data set, the target named is BRK (Homo sapiens, UniProt Q13882). As to conditions: 1 µM inhibitor, read-out: Residual activity, %. The method in brief:
(§1)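 Each compound, at 1 µM final, is screened against human protein kinases in a radiometric filter-binding format. ATP is set at or under the KM of each kinase. Values give retained activity relative to a control lacking inhibitor.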

A further data set addresses CK1γ2 (Homo sapiens, UniProt P78368). The conditions noted are these: CK1γ2, 1 µM inhibitor; read-out: Residual activity, %. In short, it runs like this: as §1
A further data set has as its target ERK2 (Homo sapiens, UniProt P28482). The conditions noted are these: ERK2, 1 µM inhibitor; read-out: Residual activity, %. In short, it runs like this: as §1
For the next data set, the target named is T1, PKD1 (Homo sapiens, UniProt Q15139).
T1 sequence (Q15139 1-912): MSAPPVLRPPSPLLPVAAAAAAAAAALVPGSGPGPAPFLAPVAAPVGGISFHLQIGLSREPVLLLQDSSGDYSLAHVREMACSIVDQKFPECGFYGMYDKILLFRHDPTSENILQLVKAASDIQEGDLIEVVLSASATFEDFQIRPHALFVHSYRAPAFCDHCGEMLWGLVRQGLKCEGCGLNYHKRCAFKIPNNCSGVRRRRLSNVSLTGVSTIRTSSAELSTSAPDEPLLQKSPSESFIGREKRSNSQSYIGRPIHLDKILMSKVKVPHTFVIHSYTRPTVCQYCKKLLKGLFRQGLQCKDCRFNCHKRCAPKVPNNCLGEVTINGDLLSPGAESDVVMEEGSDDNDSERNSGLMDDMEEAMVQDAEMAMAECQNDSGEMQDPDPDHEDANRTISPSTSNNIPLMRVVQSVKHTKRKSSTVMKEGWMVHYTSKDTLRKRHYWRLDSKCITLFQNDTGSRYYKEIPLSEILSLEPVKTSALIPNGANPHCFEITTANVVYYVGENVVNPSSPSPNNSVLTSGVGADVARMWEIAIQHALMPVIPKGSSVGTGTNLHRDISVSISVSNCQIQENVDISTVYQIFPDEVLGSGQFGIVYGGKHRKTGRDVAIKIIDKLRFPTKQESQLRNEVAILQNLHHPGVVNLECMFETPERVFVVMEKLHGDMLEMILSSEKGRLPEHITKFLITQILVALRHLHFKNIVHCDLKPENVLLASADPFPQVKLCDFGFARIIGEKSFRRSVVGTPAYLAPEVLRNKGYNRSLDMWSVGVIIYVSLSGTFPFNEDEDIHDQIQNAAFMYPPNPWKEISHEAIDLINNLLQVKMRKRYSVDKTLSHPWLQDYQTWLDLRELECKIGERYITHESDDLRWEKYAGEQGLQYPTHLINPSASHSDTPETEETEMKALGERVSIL
As to conditions: PKD1, 1 µM inhibitor; read-out: Residual activity, %. In short, it runs like this: as §1

A further data set has as its target T2, ULK1 (Homo sapiens, UniProt O75385).
T2 sequence (O75385 1-1050): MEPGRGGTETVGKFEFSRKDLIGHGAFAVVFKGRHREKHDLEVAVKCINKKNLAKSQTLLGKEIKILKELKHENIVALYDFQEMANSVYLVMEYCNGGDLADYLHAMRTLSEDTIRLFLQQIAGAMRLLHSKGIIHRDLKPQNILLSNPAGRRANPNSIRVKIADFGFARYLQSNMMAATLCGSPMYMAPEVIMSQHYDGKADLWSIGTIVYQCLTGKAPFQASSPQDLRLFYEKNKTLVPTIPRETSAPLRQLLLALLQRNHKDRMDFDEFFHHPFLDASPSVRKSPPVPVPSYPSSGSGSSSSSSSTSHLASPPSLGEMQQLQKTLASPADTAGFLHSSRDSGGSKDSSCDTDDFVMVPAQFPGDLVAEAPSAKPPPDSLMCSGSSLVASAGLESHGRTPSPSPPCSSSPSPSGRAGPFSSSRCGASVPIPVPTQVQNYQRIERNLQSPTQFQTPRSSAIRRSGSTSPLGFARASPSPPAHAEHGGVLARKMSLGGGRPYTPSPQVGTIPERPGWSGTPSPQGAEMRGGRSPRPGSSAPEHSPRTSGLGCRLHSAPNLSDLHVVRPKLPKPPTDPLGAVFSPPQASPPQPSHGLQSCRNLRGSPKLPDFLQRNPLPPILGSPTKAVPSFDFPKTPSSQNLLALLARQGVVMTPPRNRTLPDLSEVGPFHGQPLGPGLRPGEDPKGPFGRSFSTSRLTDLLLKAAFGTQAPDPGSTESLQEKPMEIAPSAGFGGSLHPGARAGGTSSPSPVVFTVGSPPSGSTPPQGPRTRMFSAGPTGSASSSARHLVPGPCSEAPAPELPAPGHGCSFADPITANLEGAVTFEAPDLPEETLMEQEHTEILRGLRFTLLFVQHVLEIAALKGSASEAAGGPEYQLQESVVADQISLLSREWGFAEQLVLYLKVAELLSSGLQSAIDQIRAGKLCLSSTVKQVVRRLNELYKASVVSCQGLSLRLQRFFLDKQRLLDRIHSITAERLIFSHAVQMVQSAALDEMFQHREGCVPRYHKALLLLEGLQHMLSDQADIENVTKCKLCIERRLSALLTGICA
As to conditions: ULK1, 1 µM inhibitor; read-out: Residual activity, %. In short, it runs like this: as §1

Another data set addresses p38 MAPK (Homo sapiens, UniProt Q16539). As to conditions: first of four lines (Greek letter lost), 1 µM inhibitor, read-out: Residual activity, %. The method in brief:
as §1

Square brackets hold non-standard residues; d marks the D form. Peptide text beside a SMILES is read from it. * marks the point of attachment. X3 = O=C(CCCCCNCc1nc2c(sc3cc(Br)cnc32)c(=O)[nH]1)*

p38 MAPK, sequence (Q16539 whole entry): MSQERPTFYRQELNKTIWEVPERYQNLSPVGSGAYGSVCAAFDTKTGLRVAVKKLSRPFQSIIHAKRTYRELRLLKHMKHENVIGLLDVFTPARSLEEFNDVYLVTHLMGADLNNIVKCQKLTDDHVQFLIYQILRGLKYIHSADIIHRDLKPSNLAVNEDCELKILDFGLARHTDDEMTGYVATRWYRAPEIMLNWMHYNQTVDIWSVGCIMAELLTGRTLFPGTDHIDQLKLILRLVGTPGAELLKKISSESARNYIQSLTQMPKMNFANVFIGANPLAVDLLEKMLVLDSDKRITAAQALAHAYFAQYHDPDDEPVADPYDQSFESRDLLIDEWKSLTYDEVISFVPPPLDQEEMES
ERK2, sequence (P28482 whole entry): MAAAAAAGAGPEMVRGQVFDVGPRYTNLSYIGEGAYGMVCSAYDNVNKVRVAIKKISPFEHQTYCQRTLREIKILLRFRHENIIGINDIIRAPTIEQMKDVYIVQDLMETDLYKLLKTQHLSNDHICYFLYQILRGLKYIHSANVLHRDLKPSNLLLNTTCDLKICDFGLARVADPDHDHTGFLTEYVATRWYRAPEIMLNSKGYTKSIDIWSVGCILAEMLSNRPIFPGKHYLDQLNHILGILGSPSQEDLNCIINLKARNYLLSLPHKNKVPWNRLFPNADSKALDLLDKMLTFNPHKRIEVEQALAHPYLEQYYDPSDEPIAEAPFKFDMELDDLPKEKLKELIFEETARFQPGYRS
CK1γ2, sequence (P78368 whole entry): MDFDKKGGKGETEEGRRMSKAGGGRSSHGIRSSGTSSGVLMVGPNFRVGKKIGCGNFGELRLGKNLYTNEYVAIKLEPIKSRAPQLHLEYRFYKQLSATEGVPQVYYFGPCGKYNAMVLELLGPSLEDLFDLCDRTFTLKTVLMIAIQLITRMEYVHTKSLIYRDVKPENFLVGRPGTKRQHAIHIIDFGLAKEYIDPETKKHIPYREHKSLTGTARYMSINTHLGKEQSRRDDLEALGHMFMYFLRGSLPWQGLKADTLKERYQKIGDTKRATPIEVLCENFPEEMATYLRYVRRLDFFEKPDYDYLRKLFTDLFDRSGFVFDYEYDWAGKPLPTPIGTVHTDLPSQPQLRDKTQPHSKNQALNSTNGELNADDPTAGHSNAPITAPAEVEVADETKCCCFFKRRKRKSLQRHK
BRK, sequence (Q13882 whole entry): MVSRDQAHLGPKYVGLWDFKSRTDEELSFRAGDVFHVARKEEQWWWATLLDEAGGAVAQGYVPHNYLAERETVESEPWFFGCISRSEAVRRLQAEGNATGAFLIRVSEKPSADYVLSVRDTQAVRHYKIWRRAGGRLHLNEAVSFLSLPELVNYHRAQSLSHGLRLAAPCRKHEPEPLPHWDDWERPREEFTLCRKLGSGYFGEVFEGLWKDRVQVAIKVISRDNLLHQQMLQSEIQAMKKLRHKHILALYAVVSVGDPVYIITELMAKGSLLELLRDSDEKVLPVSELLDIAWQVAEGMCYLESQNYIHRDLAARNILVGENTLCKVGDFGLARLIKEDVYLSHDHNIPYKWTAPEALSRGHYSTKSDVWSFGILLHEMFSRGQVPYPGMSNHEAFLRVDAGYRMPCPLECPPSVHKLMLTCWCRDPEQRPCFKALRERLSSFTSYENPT

For the compound `N=C(N)NCCC[C@@H](NC(=O)CCCCCNC(=O)Cn1cnc2c(I)c(I)c(I)c(I)c21)C(=O)N[C@H](CCCNC(=N)N)C(=O)N[C@H](CCCNC(=N)N)C(=O)N[C@H](CCCNC(=N)N)C(=O)N[C@H](CCCNC(=N)N)C(=O)N[C@H](CCCNC(=N)N)C(=O)N[C@H](CCCCN)C(N)=O` [ARC-3125, TIBI-CH2-C(=O)-Ahx-(D-Arg)6-D-Lys-NH2], the remaining activity at 1 µM was determined as 82 ± 41% with BRK; 45 ± 5% with CK1γ2; 161 ± 4% in the data set with ERK2; 18 ± 4% with PKD1; 89 ± 9% with ULK1; 53 ± 8% with p38 MAPK.

Consider `N=C(N)NCCC[C@@H](NC(=O)CCCCCNCc1nc2c(sc3cc(Br)cnc32)c(=O)[nH]1)C(=O)N[C@H](CCCNC(=N)N)C(=O)N[C@H](CCCNC(=N)N)C(=O)N[C@H](CCCNC(=N)N)C(=O)N[C@H](CCCNC(=N)N)C(=O)N[C@H](CCCNC(=N)N)C(=O)N[C@H](CCCCN)C(N)=O` [ARC-3126, BPTP-Ahx-(D-Arg)6-D-Lys-NH2] (X3-[dR][dR][dR][dR][dR][dR][dK]-NH2), for which the remaining activity at 1 µM with BRK amounted to 81 ± 4%; with CK1γ2, 66 ± 10%; with ERK2, 166 ± 1%; in the data set with PKD1, 111 ± 10%; with ULK1, 119 ± 6%; with p38 MAPK, 116 ± 4%.

On to `N=C(N)NCCC[C@@H](NC(=O)CNC(=O)[C@@H](CCCNC(=N)N)NC(=O)[C@@H](CCCNC(=N)N)NC(=O)CCCCCCCNCc1nc2c(sc3cc(Br)cnc32)c(=O)[nH]1)C(=O)N[C@H](CCCCN)C(N)=O` [Compound 1, BPTP-Aoc-(D-Arg)2-Gly-D-Arg-D-Lys-NH2], for which the remaining activity at 1 µM was found to be 126 ± 8% in the data set with BRK; 117 ± 3% in the data set with CK1γ2; 101 ± 14% with ERK2; 128 ± 13% in the data set with PKD1; 107 ± 5% with ULK1; 113 ± 10% with p38 MAPK.

As to `N=C(N)NCCC[C@@H](NC(=O)CNC(=O)[C@@H](CCCNC(=N)N)NC(=O)[C@@H](CCCNC(=N)N)NC(=O)CCCCCCCNCc1nc2c(sc3ccc(Br)cc32)c(=O)[nH]1)C(=O)N[C@H](CCCCN)C(N)=O` [Compound 2, BBTP-Aoc-(D-Arg)2-Gly-D-Arg-D-Lys-NH2], the remaining activity at 1 µM worked out at 114 ± 11% with BRK; 116 ± 10% in the data set with CK1γ2; 102 ± 1% in the data set with ERK2; 134 ± 14% in the data set with PKD1; 99 ± 6% with ULK1; 116 ± 10% in the data set with p38 MAPK.

Consider `N=C(N)NCCC[C@@H](NC(=O)CNC(=O)[C@@H](CCCNC(=N)N)NC(=O)[C@@H](CCCNC(=N)N)NC(=O)Cn1cc(CNCc2nc3c(sc4ccc(Br)cc43)c(=O)[nH]2)nn1)C(=O)N[C@H](CCCCN)C(N)=O` [Compound 3, BBTP-Amt-(D-Arg)2-Gly-D-Arg-D-Lys-NH2], for which the remaining activity at 1 µM was found to be 114 ± 13% with BRK; 88 ± 1% with CK1γ2; 104 ± 5% in the data set with ERK2; 82 ± 3% with PKD1; 108 ± 11% with ULK1; 110 ± 7% in the data set with p38 MAPK.
